Source: PMC7312009, “SIRT7 Deacetylates STRAP to Regulate p53 Activity and Stability” (International Journal of Molecular Sciences, 2020)

Biological target: T1, Flag-tagged SIRT7 (UniProt Q9NRC8 1-400)
T1 construct: also called SIRT7 protein purified from 293T cells; source: purified from 293T cells; HEK293T, transfected, in lysate
T1 sequence (looked up): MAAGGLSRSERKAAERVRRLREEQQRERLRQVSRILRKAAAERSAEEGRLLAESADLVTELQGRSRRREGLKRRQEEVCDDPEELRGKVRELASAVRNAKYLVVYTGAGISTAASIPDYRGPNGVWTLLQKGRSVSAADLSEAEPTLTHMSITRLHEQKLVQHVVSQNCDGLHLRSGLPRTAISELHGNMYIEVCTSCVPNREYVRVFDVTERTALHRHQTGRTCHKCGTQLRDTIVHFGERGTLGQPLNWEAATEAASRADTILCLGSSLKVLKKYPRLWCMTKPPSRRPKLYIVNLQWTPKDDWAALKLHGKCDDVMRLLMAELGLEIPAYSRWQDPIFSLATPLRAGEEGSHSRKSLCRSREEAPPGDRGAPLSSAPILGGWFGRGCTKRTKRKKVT
Assay: pull-down; 1 μg GST-STRAP fusion protein incubated with Flag-tagged SIRT7 purified from 293T cells in 100 μL BC100 at 4 °C overnight, then glutathione-sepharose beads 2 h; Western blotting
Details: both partners purified

B1: GST-STRAP full length (natural protein, UniProt Q9Y3F4 1-350, looked up)
chain: MAMRQTPLTCSGHTRPVVDLAFSGITPYGYFLISACKDGKPMLRQGDTGDWIGTFLGHKGAVWGATLNKDATKAATAAADFTAKVWDAVSGDELMTLAHKHIVKTVDFTQDSNYLLTGGQDKLLRIYDLNKPEAEPKEISGHTSGIKKALWCSEDKQILSADDKTVRLWDHATMTEVKSLNFNMSVSSMEYIPEGEILVITYGRSIAFHSAVSLDPIKSFEAPATINSASLHPEKEFLVAGGEDFKLYKYDYNSGEELESYKGHFGPIHCVRFSPDGELYASGSEDGTLRLWQTVVGKTYGLWKCVLPEEDSGELAKPKIGFPETTEEELEEIASENSDCIFPSAPDVKA
notes: Serine-threonine kinase receptor-associated protein (STRAP), full length, subcloned into pGEX4T-3; also called GST-STRAP (FL); full-length STRAP (WT); source: purified GST fusion protein (pGEX4T-3)
binding result: binds
